Data as given in the nanobody polyreactivity screen of Harvey et al. (2022).

Test: yeast display, Sf9 membrane polyspecificity reagent, FACS + sequencing; frameworks hold sequencing errors
How it was run: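 Sorting gates, low and high (top ~1%), were placed on anti-HA fluorescence to track expression and on streptavidin fluorescence to track reagent binding. A clone's polyreactivity label is taken from the gate it came out of. The reagent was 10% biotinylated, detergent-solubilized Sf9 membrane, applied for 1 hour at 4 °C to galactose-induced yeast display cells.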

Row | Sequence | polyreactivity (PSR sort gate)
1 | QVQLVESGGGLVKAGGSLRLSCAASGITFRKYAMGWYRQAPGKERELVAAITAGGGRTFYADSVKGRFTISRDNAKNTVYLQMNSLKPEDTAVYYCNADLGIGYDYWGQGTQVTVSS | high polyreactivity
2 | QVQLVESGGGLVKAGGSLRLSCAASGLILYRYVMGWYRQAPGKERELVAAISSSGGRTYYADSVKGRFTISRDIAKNTVYLQMNSMKPEDTAVYYCAKRRSDARRGYDYWGQGTQVTVSS | high polyreactivity
3 | QVQLVESGGGLVKAGGSLRLSCAASGRIDSTYAMGWSRQAPGKERDLVAAINKIGGSTYYADSVKGRFTISRDNEKNTVYLQMNSLKPEDTAVYYCAADAPYYPVRRYYYWGQGTQVTVSA | low polyreactivity
4 | QVQLVESGGGLVKAGGSLRLSCAASGRIFNWYVMGWSRQAPGKERELVAAISWGSGNTYYADSVKGRFTISRDNAKNTVYLQMNSLKPEDTAVYYCNKVRSYRSWRGKYDYWGQGTQVTVSS | high polyreactivity
5 | QVQLVESGGGLVKAGGSLRLSCAASGRIFYNFSMGWSRQAHGKERELVAAISGSGGSTYYADSVKGRFTISRDNAKNTVYLQMNSLKPEDTAVYYCSTSGPQYYSRNFDYWGQGTQVTVSS | low polyreactivity
6 | QVQLVESGGGLVKAGGSLRLSCAASGRNFNYYAMGWYTQAPGKERELVAAIRSGGSTYYADSVKGRFTISRDNAKYTVYFQMNSLKPEDTAVYYCAKSMSSDAYDSWGQGTKVTVSS | low polyreactivity
7 | QVQLVESGGGLVKAGGSLRLSCAASGSIFNRYAMGWYRPAPGKEREFGARISKRGGGTYYADSVKGRFTISRDNAKNPVYLQMNRLKPEDTAVYYCNAGVPSAMDYCGQGTQVTVSS | high polyreactivity
8 | QVQLVESGGGLVKAGGSLRLSCAASGSTFGLYVMGWYRQAPGKERELVAAINRIGSRTYYADSVKGRFTISRDNAKNTVYLQMNSLKPEDTAVYYCAADYDYTSPGDDYWGQGTQVTVSS | high polyreactivity
9 | QVQLVESGGGLVKAGGSLRLSCAASGSTFQWYAMGWYRQAPGKERELVAAINKSGGTTYYADSVKGRFTISRDNAKNSVYLQMNSLKPEDTAVYYCATDNPVVYQPGNMDYWGQGTQVTVSS | low polyreactivity
10 | QVQLVESGGGLVKAGGSLRLSCAASGSTFRPYAMGWYRPAPGKERELVAAITSRGGSTYYADSVKGRFTISRDNAKNTVSLQMNSLKPEDTAVYYCAASYEVVASSYRYYYWGQGTQVTVSS | high polyreactivity
11 | QVQLVESGGGLVKAGGSLRLSCAASGSTSPFNAMGWYRQAPGKERELVAAITSGGSTHYADSVKGRFTISRDNAKNTVYLPMNRLKPEDSAVYYCAAEPVAYYGSSYGYWGQGTQVNVSS | low polyreactivity
12 | QVQLVESGGGLVKAGGSLRLTCAASGRIFGPYVMGWYRQAPGKERELVAAISTSGTSTYYADSVKGRFTISRDNAKNTVYLQMNSLKPEDTAVYYCAKRSGARHRLMDYWGQGTQVTVSS | low polyreactivity
13 | QVQLVESGGGLVKAGGSLRLTCAASGRTFGDNAMVWYRQATGKEMELVAAIRWGGGSTYYADSVKGRFTISRDNAKNTVFLQMNRLKPEDTAVYYCAKDDWDIALVHGEYDYWGQGTQVTVSS | low polyreactivity
14 | QVQLVESGGGLVKAGSSLRLSCAASGSIFLYNAMGWYRQAPGKERELVAVINGRGGTYYADSVKGRFTISRDNAKNTVYLQMNSLKPEDNSVYYCATGYPPSAWYDSVRFEDRDSWGQCTQVTVSS | low polyreactivity
15 | QVQLVESGGGLVKAVGSLRLSCAASGINLIRYVMGLYRQAPGKERELVAAISGSGGRTYYADSVKGRFTISRDNAKTTVDLQMNSLKPEDTAVYYCAAVSFRTTHGEYDYWGQGTQVTVSS | low polyreactivity
16 | QVQLVESGGGLVKSGGSLRLSCAASGGTFKPNVMGWYIQAPGKERELVAAITSGGSTYYADSVKGRFTISRDNAKNTVYLQMNSLKPEDTAVYYCAASSLRRYGYNYWGQVTQVTVSS | high polyreactivity
17 | QVQLVESGGGLVLAGGSLRLSCAASEFIFARNGMGWYIQAPGKERELVAAITKSGSTYADSVKGRFTISRDNAKNTVYLQMNSLKPEDTAVYYCNKDPGNVSSFTGGGYWGQGTQVTVSS | low polyreactivity
18 | QVQLVESGGGLVLAGGSLRLSCAASGGIYTTYAMGWYREAPGKERELVAAISRSGGSTYYADSVKGRFTISRDNAKNTVYLQMNSLKPDDTAVYYCAADQYMCRAWRGRVYYWGQGTQVTVSS | high polyreactivity
19 | QVQLVESGGGLVLAGGSLRLSCAASGRIFGTNAMGWYRQAPGKERELVAAISLSGGRTYADSVKGRFTISRDNAKNTVYLQMNSLKPEDTAVYYCNADSAGITRSRSELDYWGQGTQVTVSS | low polyreactivity
20 | QVQLVESGGGLVLAGGSLRLSCAASGRTFGIYAMGWYRQAPGKEREIVAAISWSGTSTHYADSVKGRFTISRDNAKNTVYLQMNSLKPEDTAVYYCAAAKTGRGSGTTGFGYWGQGTQVTVSS | high polyreactivity
21 | QVQLVESGGGLVLAGGSLRLSCAASGSILEGYVMGWYRQAPGKERELVAAISRGGGSTYYADSVKGRFTISRDNAKNTVYLQMNSLKPEDTAVYYCAARFAASYYWGQGTQVTVSS | high polyreactivity
22 | QVQLVESGGGLVLAGGSLRLSCAASGSILYYNAMGWYRQAPVKERELVAAITLDGASTYYSDSVKGLFTISRDNAKNTVYLQMNSLKPEDTAGYYCAADYAYWLSGYDYWGQGSQVTVSS | low polyreactivity

Row | Sequence | polyreactivity (PSR sort gate)
23 | QVQLVESGGGLVLAGGSLRLSCAASGSTFARNAMGWYRHAPGKERELVAAISWNGGRTYYADSVKGRFTISRDNAKNTVYLQMNSLKPEDTAVYYCAAKYVKDYWSDFDYWGQGTQVTVSS | high polyreactivity
24 | QVQLVESGGGLVLAGGSLRLSCAASGSTFEYNAMGWYRPAPGKERELVASSTNYADSVKGRFTISRDNAKNTVSLQRNSLKPEDTAVNYSAREQGVNRNHDYWGQGTQVTVSS | low polyreactivity
25 | QVQLVESGGGLVLAGGSLRLSCASSGRTFPSYAKGWYRQAPGKERELVAAITRGGSTNYADSVKGRFTISRDNAKNTVYLQMNSLKPEDTAVYYCAAARWRWQLARDDYWGQGTQVTVSS | high polyreactivity
26 | QVQLVESGGGLVLAGGSLRLSSAASGFTFSPYAMGWYRQAPGKERELVPAISASGGRTYYADSVKGRFTISRDYAKNTVYLQMNSLKPEDTAVYYCAAKLYDSGGRYWYDYWGQGTQVTVSS | high polyreactivity
27 | QVQLVESGGGLVNAGGSLRLSCAASGITFWGYAMGWYRQAPGKERELVAAITSGGTTYYADSVKGRFTISRDNAKNTVYLQMNSLKPEDTAVYYCNARYPSADDWGQGTQVTVSS | high polyreactivity
28 | QVQLVESGGGLVPAGGSLRLICAGSAFTFRSYAIGWYRQAPGQERELVAAISLGGTSTYYADSVKGRFTISRDNAKNTVYLQMNSLKPEDTAVYSCAARSYGHYGYWGQGTQVTVSS | high polyreactivity
29 | QVQLVESGGGLVPAGGSLRLSCAASGFIFVTNGMGWYRQAPGKERELVAAITDNGGSTYYADSGKGRFTISRDNAKNTVYLQMNSLKPEDTAVYYCNADRVVGPYDGYDYWGQGTQVTVSS | low polyreactivity
30 | QVQLVESGGGLVPAGGSLRLSCAASGFTFSGYAMGWYRQAPGKERELVAAITRRGGSTYYADSVKGRFTISRDNAKNTVYLQMNSLKPEDTAVYYCAADSGYPWELDYWGQGTQVTVSS | low polyreactivity
31 | QVQLVESGGGLVPAGGSLRLSCAASGFTFTRYAMGWYRQARGKERELVAAISWNGGSTYYADSVKGRFTISRDNAKKTVYLQMNSLKPEDTAVYYCAVRFKYQWSNFGYWGQGTQVTVSS | high polyreactivity
32 | QVQLVESGGGLVPAGGSLRLSCAASGLTFYYYAMGWSRQAPGKERELVAGISGSDGSTYYADSVKGRFTISRDNAKNTVYLQMNSLKPEDTAVYYFAAEYYYPWPLYYITDGIYDMYYWGQGTQVTVSS | low polyreactivity
33 | QVQLVESGGGLVPAGGSLRLSCAASGRIFYYYAMGWYRQAPGKERELVAAISSSGGSTYYADSVKGRFTISRDNAKKTVYLQMNSLKPEDTAVYYCAKRYALSGYYRLYDYWGQGTQVTVSS | high polyreactivity
34 | QVQLVESGGGLVPAGGSLRLSCAASGSIFGFYAMGWYRQSPGKERELVAGISYGDSSTYYADSVKGSFTISRDNAKNTVYLQMNSLKPEDTAVYYCAAGHRQKYNWGRYDYWGQGTQVTVSS | low polyreactivity
35 | QVQLVESGGGLVPAGGSLRLSCAASGSIFLAYAMGWYRQAPGKERELVAAITSIDGITSYADSVKGRFTISRDNAKNTVYLQMNSLTPEDTAVSYCAAPDGHWIRQWDTFEYWGQGTQVTVSS | low polyreactivity
36 | QVQLVESGGGLVPAGGSLRLSCAASGSIFTNAMGWYRQAPGKERELVAAIDANAGDTHYADSVKGRFTISRDNAKNTVYLQMNSLKPEDTAVYSCNADVTERLWTGEDDYWGQGTQVTVSS | low polyreactivity
37 | QVQLVESGGGLVPAGGSLRLSCAASGSIFVQNAMGWYRQAPGKERELVAVINSGDSTNYADSVKGRFTISRDNAKNTVYLQMNSLKPEDTAVYYCNADVSYTSEDQRALFTNVYYWGQGTQVTVSS | low polyreactivity
38 | QVQLVESGGGLVPAGGSLRLSCAASGYTFYFYAMGWYRQAPGKERELVAAITGGGTTSYADSVKGRFTISRDNAKNTVYLQMNSLKPEDTADSYCNVLFADKSDYWGQATQVTVSS | low polyreactivity
39 | QVQLVESGGGLVPAGGSLRLSCASSGITFRVYVMGWYRQAPGKESELVAPIDDNGGSTYYADSVKGRFTISRDNAKNTVYLQMNSLKPEDTAVYYCAKAIVYSLLEYGWVDYDDWGQGTQLTVSS | low polyreactivity
40 | QVQLVESGGGLVPARGSLRLSWAASGSTFSLYAMGWYRQAPGKERELVAAISWSGGNTYYADSVKGRFTISRDNAKNTVYLQMNSLKPEDTAVYYCAAEGKTFHRYYLYSYDYWGQGTQVTVSS | high polyreactivity
41 | QVQLVESGGGLVPSGGSLRLSCAASGRIFTSNAMGWYRQAPGKERELVAAISKSGGRTYYADSVKGRFTISRDNAKNTVYLQMNSLKPEETAVYYFAKDNFWGQGTQVTLSS | high polyreactivity
42 | QVQLVESGGGLVQAAASLRLSCAAYGITFNSYVMGWSRQAPGKERELVAVISRGGGITYYADSVKGRFTISRDNAKNTVYLQMNSLKPEDTAVYYCAADHTHVYVLYYNDNYWGQGTQVTVSS | high polyreactivity
43 | QVQLVESGGGLVQAAGILRLSCAASGFIVVRNAMGWYRQAPGKERELVAAISAIGSSTYYADSVKGRFTISRDNAKNTVYLQLNSLKPEDTAVYYCAASGSRVSERSPTRLDYYCGQGTQVTVSS | high polyreactivity
